Measurements published in the nanobody polyreactivity screen of Harvey et al. (2022).

Test: yeast display, Sf9 membrane polyspecificity reagent, FACS + sequencing; frameworks hold sequencing errors
In short: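 In a synthetic yeast display library (Saccharomyces cerevisiae BJ5465), nanobody expression was induced with galactose for 36–48 hours. FACS gates were set low and high (top ~1%) using anti-HA fluorescence for expression and streptavidin fluorescence for binding of the Sf9 membrane reagent. Each polyreactivity label is drawn from the gate of origin.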

| Sequence | polyreactivity (PSR sort gate) |
| --- | --- |
| QVQLVETGGGLVQAGGSLRLSCAASGSTFYPTYAMGWYRQAPGKERELVATITGSGGSTYYADSVKGRFTISRDNAKNTVYLKMNSLKPEDTAVYYCAADRWYSRYTRYGYWGQGTQVTVSS | low polyreactivity |
| QVQLVESGGGLVQAGGSLRLSCAASGITFRRNAMGWYRQAPGKERELVAGITRGGTTKYADSVKGRFTISRDNAKNTVYLQMNSLKPEDTAVYYCNAVTRRHKYYYWGQGTQVTVSS | high polyreactivity |
| QVQLVESGGAIVQAGGSLRLICAASGSIFYIYAMGWYRQAPGKERELVASITFSGDITYYADSVKGRFTISRDNAKYTVYLQMNSLKPEDTAVYYCAADYHEQSYAVTYDYWGQGTKVTVSS | low polyreactivity |
| QVQLVESGGGLVQAGGSLRLSCAASGRTFYRYAMGWYRQAPGKERELVAAISSGGSTNYADSVKGRFTISRDNAKNTVYLQMNSLKPEDTAVYYCAAETRLHRQDYDYWGQGTQVTVSS | low polyreactivity |
| QVQLEESGGGLVQAGGSLRLSCAASGPIFVGYAMGWSRQAPGKEREFLAAISRDGDNTFYADSVKGRFTISRDYAKNTVYLQMYSLKPEDTAVYYCAVDYWVWYGCAYAYDYYWGQGTQVSVSS | low polyreactivity |
| QLQLVESGGGLVQAGGSLRLSCAASGRIYLYAMGWSRQAPGKERELVAAITTRAGRTYYADSVKGRFTISRDNAKNTVYFQMNSLKPEDTAVYYCAADGTRYPAYGYWGQGTQVTVSS | low polyreactivity |
| QVQLVESGGGLVQAGGSLRLSCAASGSIFYENMGWYRQSPRKERELVASISWSGTSTYADSVKGRFTISRDNAKNTVYLQMNSLKPEDSAVYYCAAGKNGYTYSRSYSYGYWGQGTQVTVSS | high polyreactivity |
| QVQLVESGGGLVQAGGSLRLSCAASGGIFWTYAMGWYRQAPWKERELVATITSGGSTNYADSVKGRFTISRDNAKNTVYLQMNSLKPEDTAVYYCNADWWWGYGYWGQGTQVTVSS | low polyreactivity |
| QVQLVESGGGLVQAGGSLRLSCAASGIIFTYYAMGWYTQAPGKERELVAAISSRGDSTYYADSVKGRFTISRDNAKNTVYLQMNSLKPEDTAVYYCNRYLSRPLRAMYYWGLGTQVTVSS | high polyreactivity |
| QVQLVESGGGLVQAGGSLRLSCAASGRTFRTYTMGWYRPAPGKERELVAAISKRGSSTYYADSVKGRFTISRDNAKNTVYLQMNSLKQEDTAVYYCAARSWLSNSPYGYWGQGTQVTVSS | high polyreactivity |
| QVQLVESGGGLVQAGGSLRLSCAASGSTFQPYAMGWYRQAPGKEREFVATISGSAGSTYYADSVKGRFKISRDNAKNTVYLQMNSLKPEDTAVYYCNADSGWFGYDYWGQGTQVTVSS | low polyreactivity |
| QVQLVESGGGLVQAGGSLRLSCSASGSTFGDYAMRWYRQAPGKREFVAAISFSGGNTYYADSVKVRFTISRDNAKNTVYLQMNSLKPEDTAVYYCNADWDWFYSTGSLGFPDFYYWGQGTQVSVSS | low polyreactivity |
| QVQLVESGGGLVQAGGSLRLSCAASGLTFYHYTMGWYRQAPGKERELVAAITKNGGSTYYADSVKGRFTISRDNAKNTVYLQMNSLKPEDTAVYYCNVGPRRVDRSRAASSDYDYWGQGTQVTVSS | high polyreactivity |
| QVQLVESGGGLVQAGGSLRLSFAASGRIFDVYAMGRYRQAPGKERELVAAITWSGGRTYYADSVKGRFTLSRDNAKNTVYLQMNSLKPEDTAVYYCAAEKPYVRGYLGTYDYWGQGTQVTVSS | low polyreactivity |
| QDQLVESGGGLVQAGGSLRLSCASSGFTFSKNAMGWYRQAPGKERELVAAISRGGGRTYYADSVKGRFTISRDNAKNTVYLQMNSLKPEDTAVYYCNVEKVGPGYDYWGQGTQVTVSS | high polyreactivity |
| QGQLVESGGGLVQAGGSLRLSCAASGSTFRLYAMGWYRQAPGKERELVAAISQRGASTYADSVKGRFTISRDNAKNTLNLQMNSLKPEDTAFYYCSAVRNCRYWYRQYGFCGQGTQVTVSS | high polyreactivity |

| Sequence | polyreactivity (PSR sort gate) |
| --- | --- |
| QVQLVESGAGLVQAGGSLRLSCAPSGSIFWWYAMVWYRQAPGKERELVAVISGGTSTYYADSVKGRFTISRDNAKNTVYLQMNSLKPEDTAVYYCNADVFSKVSYFRYIEYDYWGQGTQVTVSS | high polyreactivity |
| QVQLVESGGGLVQAGGCLRLSCAASGRTLGAYAMGWYRQAPGKEREFVASITYGGRTCYADSVKGRFTISRDNAMNTVFLQMNSLKPEDSAVYYCASKLPYRWYDYWGQGTQVTVSS | high polyreactivity |
| QVQLVESGGGLVQAGGSLRLTCAASGSIFSLNVMGRYRQAPGKERELVATIRGRGTSTYYADSVKGRFTISRYNAKINVYLHMNSLKPEDTAVYYWAARGHGAYGYWGQGTQVTVSS | low polyreactivity |
| QVQLEESGGGFVQAGGRLRLSCAASGSIFQAYFMGWYRQAPGKERELVADISRSGGRTYYADSVKGRFTISRDNAKNTVYLQMNSLKPEDTGVYYCAADWRHLLYRGGLQYEYWGQGTQVTVSS | high polyreactivity |
| QVQLVESGGGLVQAGGSLRLSCAASGFTFNYYAMGWYRQAHGKEREFVAAISRGGGRTYYADSVKGRFTISRDNAKNTVYLQMNSLKPEDTAVYYCAAQSVPYAYRLASYDYWGQGTQVTVSS | high polyreactivity |
| QVQLVESGGGLVQAGGSLRLSCAASGRIFFYYAMGWYRQAPGKERELVATISYSGGCTYYADSVKGRFTISRDNAKNTVYLQMNSLKPEETAVYYCNARWGTPYYIQDFDYWGQGTQVTVSS | low polyreactivity |
| QVQLVESGGGLVQAGGSLRLSCAASGRTFGVYMGWYRQAPGKERELVAVISSGDSTNYADSVKGRFTISRDNAKNTVYLQMNSLKPEDTAVYYCNAYGSDRLTLDDYWGQGTQVSVSS | low polyreactivity |
| QVHLVESGGGLVQAGGSLRLSCAASGSIFWWYAMGWYRQAPGKERELVAAIRWSGTTAFYADSVKGRFTISRDYAKNTVYLQMNSLKPEDTAVYYCNAEGGIWGGTTGYDYWGQGTQVTVSS | low polyreactivity |
| QVQLVESGGGLVQAGGSLRLSCAASGFIQDYYAMGWYRHAPGKERELDAAISSGGTDTYYADSVKGRFTVSRDTAKNTVYLQMNSLKPEDTAVYYFAADSYWSAYDYWGQGTQVTVSS | low polyreactivity |
| QVQLVESGGGLVQAGGSLRLSCAASGITFSKYAMGWYRQAPGKERELVAAITRSGGSTYYADSVKGRFTISRDNAKNTVYLQMNSLKPEDTAVYYCNARGYVTGGDGGYGYWGQGTQVTVSS | high polyreactivity |
| QVQLVESGGGLVQAGGSLRIICAASGTTFVYNDMGWYRQAPGKEGELVAGITTSGGSTYYADSVKGRFTISRDNAKNTVYLQRNSLKPEDTAVYYWAAPAFSAWLEMDYWGQGTQVTVSS | low polyreactivity |
| QVQLVESGGGLVQAGGSLRLSCAASGSTFQDYAMGWYRQAPGKERELVAAISKRGGRTYYADSVKGRFTISRDNAKNTVYLQMNSLKPEETAVYYCNTYPVPGGVTYSYTGFDYWGQGTQVTVSS | high polyreactivity |
| QVQLVESGGGLVQAGGSLRLSCAASGFILGTNAMGWYRQAPGKERELVAAISSGGGSTYYADSVMGRFTISRDNAKNTVYLQMNSQKPEDTAVYYCAADNVWGYPEDDYWGQGTQVTVSS | low polyreactivity |
| QVQLVESGGGLVQAGGSLRLSCAASGLTFGVNAMGWYRQAPGKERELVAAISGSGGRTNYADSVKGRFTISRDNAKNTVYLQMNSLKPEDTAVYYCNARFPDWALSEISHSTTYGYWGQGTQVTVSS | low polyreactivity |
| QVQLVESGVGLVQAGGSLRLSCAASGRTFRPYALGWYRQAPGNERELVAAIDSGGSTYADSVKGRFTISRDNAKTTVYLQMNSLKPEDTAVYYSAAVTQTAWLWYGYWGQGTQVTVSS | low polyreactivity |
| QVQLVESGGGLVQAGGSLRLSCAASGSIFLTYAMGWYRQAPGKERELVAAISSSVGSTNYADSVKGRFTISRDNAKNTVYLQMNSLKPEDTAVYYCNATGVQYFLYGYWGQGTQVTVSS | low polyreactivity |
